Source: the supplement of paper PMC5998384

Tests used:
HeLa Kyoto [1] = assay: solubility in G1/S (NP-40 vs SDS abundance) (log2 ratio); higher = more soluble; settings: cell cycle stage: G1/S
HeLa Kyoto [2] = assay: solubility change mitosis vs G1/S (difference of NP-40 vs SDS log2 ratios) (log2 ratio difference); higher = more soluble in mitosis
HeLa Kyoto [3] = assay: thermal stability score vs G1/S (z-score of summed log2 fold changes over temperatures); higher = more thermally stable than in G1/S
HeLa Kyoto [4] = assay: melting temperature (median over replicates), in situ; higher = more thermally stable
[5] = cell cycle stage: early G1 (4.5 h after nocodazole release)
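Wherever melting temperature (median over replicates), in situ is given: HeLa Kyoto cells synchronized by double thymidine or nocodazole block, proteins quantified by TMT10plex mass spectrometry, three independent biological replicates.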
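Wherever solubility change mitosis vs G1/S (difference of NP-40 vs SDS log2 ratios) is given: synchronized HeLa Kyoto cells (double thymidine block for G1/S, nocodazole release for mitosis), protein amounts in NP-40 versus SDS lysates quantified by mass spectrometry, three biological replicates.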
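Wherever solubility in G1/S (NP-40 vs SDS abundance) is given: HeLa Kyoto cells arrested at G1/S by double thymidine block, proteins quantified by TMT10plex mass spectrometry in mild NP-40 versus SDS extracts, three biological replicates.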
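Wherever thermal stability score vs G1/S (z-score of summed log2 fold changes over temperatures) is given: synchronized HeLa Kyoto cells, proteins quantified by TMT10plex mass spectrometry, three biological replicates, mitosis taken 0.5 h after nocodazole release, G1/S directly after double thymidine block.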

| Sequence | solubility in G1/S (log2) (HeLa Kyoto [1]) | solubility change mitosis (log2) (HeLa Kyoto [2]) | thermal stability score (HeLa Kyoto [3]; [5]) | thermal stability score (HeLa Kyoto [3]; cell cycle stage: mitosis) | melting temperature (HeLa Kyoto [4]; cell cycle stage: G1/S) | melting temperature (HeLa Kyoto [4]; cell cycle stage: mitosis) |
| --- | --- | --- | --- | --- | --- | --- |
| MDLGPLNICEEMTILHGGFLLAEQLFHPKALAELTKSDWERVGRPIVEALREISSAAAHSQPFAWKKKALIIIWAKVLQPHPVTPSDTETRWQEDLFFSVGNMIPTINHTILFELLKSLEASGLFIQLLMALPTTICHAELERFLEHVTVDTSAEDVAFFLDVWWEVMKHKGHPQDPLLSQFSAMAHKYLPALDEFPHPPKRLRSDPDACPTMPLLAMLLRGLTQIQSRILGPGRKCCALANLADMLTVFALTEDDPQEVSATVYLDKLATVISVWNSDTQNPYHQQALAEKVKEAERDVSLTSLAKLPSETIFVGCEFLHHLLREWGEELQAVLRSSQGTSYDSYRLCDSLTSFSQNATLYLNRTSLSKEDRQVVSELAECVRDFLRKTSTVLKNRALEDITASIAMAVIQQKMDRHMEVCYIFASEKKWAFSDEWVACLGSNRALFRQPDLVLRLLETVIDVSTADRAIPESQIRQVIHLILECYADLSLPGKNKVLAGILRSWGRKGLSEKLLAYVEGFQEDLNTTFNQLTQSASEQGLAKAVASVARLVIVHPEVTVKKMCSLAVVNLGTHKFLAQILTAFPALRFVEEQGPNSSATFMVSCLKETVWMKFSTPKEEKQFLELLNCLMSPVKPQGIPVAALLEPDEVLKEFVLPFLRLDVEEVDLSLRIFIQTLEANACREEYWLQTCSPFPLLFSLCQLLDRFSKYWQLPKEKRCLSLDRKDLAIHILELLCEIVSANAETFSPDVWIKSLSWLHRKLEQLDWTVGLRLKSFFEGHFKCEVPATLFEICKLSEDEWTSQAHPGYGAGTGLLAWMECCCVSSGISERMLSLLVVDVGNPEEVRLFSKGFLVALVQVMPWCSPQEWQRLHQLTRRLLEKQLLHVPYSLEYIQFVPLLNLKPFAQELQLSVLFLRTFQFLCSHSCRDWLPLEGWNHVVKLLCGSLTRLLDSVRAIQAAGPWVQGPEQDLTQEALFVYTQVFCHALHIMAMLHPEVCEPLYVLALETLTCYETLSKTNPSVSSLLQRAHEQRFLKSIAEGIGPEERRQTLLQKMSSF [GEMIN4] | -0.428 | -0.14 | 0.771 | 3.29 | 47 °C | 49.3 °C |
| MAGSSTGGGGVGETKVIYHLDEEETPYLVKIPVPAERITLGDFKSVLQRPAGAKYFFKSMDQDFGVVKEEISDDNARLPCFNGRVVSWLVSSDNPQPEMAPPVHEPRAELAPPAPPLPPLPPERTSGIGDSRPPSFHPNVSSSHENLEPETETESVVSLRRERPRRRDSSEHGAGGHRTGGPSRLERHLAGYESSSTLMTSELESTSLGDSDEEDTMSRFSSSTEQSSASRLLKRHRRRRKQRPPRLERTSSFSSVTDSTMSLNIITVTLNMEKYNFLGISIVGQSNERGDGGIYIGSIMKGGAVAADGRIEPGDMLLQVNDMNFENMSNDDAVRVLRDIVHKPGPIVLTVAKCWDPSPQAYFTLPRNEPIQPIDPAAWVSHSAALTGTFPAYPGSSSMSTITSGSSLPDGCEGRGLSVHTDMASVTKAMAAPESGLEVRDRMWLKITIPNAFLGSDVVDWLYHHVEGFPERREARKYASGLLKAGLIRHTVNKITFSEQCYYVFGDLSGGCESYLVNLSLNDNDGSSGASDQDTLAPLPGATPWPLLPTFSYQYPAPHPYSPQPPPYHELSSYTYGGGSASSQHSEGSRSSGSTRSDGGAGRTGRPEERAPESKSGSGSESEPSSRGGSLRRGGEASGTSDGGPPPSRGSTGGAPNLRAHPGLHPYGPPPGMALPYNPMMVVMMPPPPPPVPPAVQPPGAPPVRDLGSVPPELTASRQSFHMAMGNPSEFFVDVM [DVL2] | -0.00889 | -0.0693 | 0.348 | 0.985 | 47 °C | 48.7 °C |
| MPVAVGPYGQSQPSCFDRVKMGFVMGCAVGMAAGALFGTFSCLRIGMRGRELMGGIGKTMMQSGGTFGTFMAIGMGIRC [ROMO1] | -0.104 | 0.0021 | -0.746 | -1.2 | 54.5 °C | 54.9 °C |
| MERREEQPGAAGAGAAPALDFTVENVEKALHQLYYDPNIENKNLAQKWLMQAQVSPQAWHFSWQLLQPDKVPEIQYFGASALHIKISRYWSDIPTDQYESLKAQLFTQITRFASGSKIVLTRLCVALASLALSMMPDAWPCAVADMVRLFQAEDSPVDGQGRCLALLELLTVLPEEFQTSRLPQYRKGLVRTSLAVECGAVFPLLEQLLQQPSSPSCVRQKVLKCFSSWVQLEVPLQDCEALIQAAFAALQDSELFDSSVEAIVNAISQPDAQRYVNTLLKLIPLVLGLQEQLRQAVQNGDMETSHGICRIAVALGENHSRALLDQVEHWQSFLALVNMIMFCTGIPGHYPVNETTSSLTLTFWYTLQDDILSFEAEKQAVYQQVYRPVYFQLVDVLLHKAQFPSDEEYGFWSSDEKEQFRIYRVDISDTLMYVYEMLGAELLSNLYDKLGRLLTSSEEPYSWQHTEALLYGFQSIAETIDVNYSDVVPGLIGLIPRISISNVQLADTVMFTIGALSEWLADHPVMINSVLPLVLHALGNPELSVSSVSTLKKICRECKYDLPPYAANIVAVSQDVLMKQIHKTSQCMWLMQALGFLLSALQVEEILKNLHSLISPYIQQLEKLAEEIPNPSNKLAIVHILGLLSNLFTTLDISHHEDDHEGPELRKLPVPQGPNPVVVVLQQVFQLIQKVLSKWLNDAQVVEAVCAIFEKSVKTLLDDFAPMVPQLCEMLGRMYSTIPQASALDLTRQLVHIFAHEPAHFPPIEALFLLVTSVTLTLFQQGPRDHPDIVDSFMQLLAQALKRKPDLFLCERLDVKAVFQCAVLALKFPEAPTVKASCGFFTELLPRCGEVESVGKVVQEDGRMLLIAVLEAIGGQASRSLMDCFADILFALNKHCFSLLSMWIKEALQPPGFPSARLSPEQKDTFSQQILRERVNKRRVKEMVKEFTLLCRGLHGTDYTADY [IPO13] | -0.335 | -0.175 | -0.535 | -0.562 | 51.2 °C | 51 °C |
| MGDTVVEPAPLKPTSEPTSGPPGNNGGSLLSVITEGVGELSVIDPEVAQKACQEVLEKVKLLHGGVAVSSRGTPLELVNGDGVDSEIRCLDDPPAQIREEEDEMGAAVASGTAKGARRRRQNNSAKQSWLLRLFESKLFDISMAISYLYNSKEPGVQAYIGNRLFCFRNEDVDFYLPQLLNMYIHMDEDVGDAIKPYIVHRCRQSINFSLQCALLLGAYSSDMHISTQRHSRGTKLRKLILSDELKPAHRKRELPSLSPAPDTGLSPSKRTHQRSKSDATASISLSSNLKRTASNPKVENEDEELSSSTESIDNSFSSPVRLAPEREFIKSLMAIGKRLATLPTKEQKTQRLISELSLLNHKLPARVWLPTAGFDHHVVRVPHTQAVVLNSKDKAPYLIYVEVLECENFDTTSVPARIPENRIRSTRSVENLPECGITHEQRAGSFSTVPNYDNDDEAWSVDDIGELQVELPEVHTNSCDNISQFSVDSITSQESKEPVFIAAGDIRRRLSEQLAHTPTAFKRDPEDPSAVALKEPWQEKVRRIREGSPYGHLPNWRLLSVIVKCGDDLRQELLAFQVLKQLQSIWEQERVPLWIKPYKILVISADSGMIEPVVNAVSIHQVKKQSQLSLLDYFLQEHGSYTTEAFLSAQRNFVQSCAGYCLVCYLLQVKDRHNGNILLDAEGHIIHIDFGFILSSSPRNLGFETSAFKLTTEFVDVMGGLDGDMFNYYKMLMLQGLIAARKHMDKVVQIVEIMQQGSQLPCFHGSSTIRNLKERFHMSMTEEQLQLLVEQMVDGSMRSITTKLYDGFQYLTNGIM [PI4KB] | 0.00648 | -0.221 | -0.522 | -0.618 | 52.3 °C | 52.2 °C |
